Values of other authors, collected in paper PMC3496038.

Key:
[1] = target: GluA1 NTD (Rattus norvegicus) (UniProt P19490); test: analytical ultracentrifugation
[2] = target: GluA3 NTD (Rattus norvegicus) (UniProt P19492); test: analytical ultracentrifugation

GluA1 NTD (from UniProt P19490)
Kd [1]: 100 nM

GluA3 NTD (from UniProt P19492)
Kd [2]: 1000 nM
